Results from patent US20040018603.
Where a chain is given by its changes, count along the chain named. Names may count otherwise. “And” between values parts separate entries of the source, which are not always exact repeats. Equal values may be shown once.

How the values were obtained:
[1] = biological target: GST-Cdc25[254-316]-WT (62-amino acid region of Xenopus Cdc25 fused to glutathione S-transferase)

B1: His6-Xcds1 (histidine-tagged Xcds1 purified from E. coli) (protein)
chain: MMSRDTKTESQQSQGTSSSSSSSAPQSYSQSSSSGTLSSLDTVPVQDLASIPEDPEIDEDIPQPWGRLWALGKGFLNHDCLHEEYVFGRDKKCDYTFDIPVLNQTDRYKTYSKRHFRIFQELGHGHSRVANIEDLSGNGTFVNKEIIGKGRTLPLTNNAEIALSLPTNKVFVFSDLSVDDQTIYPKDFIDKYIMSRPIGSGACGEVKLAFQKSVCKKVAVKIISKRKFKMNTSSNEHPISVDTEIEILKKLDHPCIIKIENFFDSEDFYYIVLELMEGGELFDRVVNSTRLREPIAKLYFYQMLLAVQYLHENGVIHRDLKPENVLLSSTSEECCIKITDFGQSKILGETSLMRTLCGTPTYLAPEVLNTAGTTGYSSAVDCWSLGVILFVCLCGYPPFSEQNSNIPLKNQIAEGKYTYIAAAWRNVSEQAFDLVKNLLVVDPEQRLTTKQALEHPWLQDDSMKHTVERLMYGVDHTMPPPIKKNIIRKRGHEWDQDASTSSCSEILPTSAEKRAKR
GST-Cdc25[254-316]-S287A
  phosphorylation in kinase assay with 32P-ATP (SDS-PAGE, PhosphorImager): a serine-to-alanine mutation at this position abolished the phosphorylation
[1]
  phosphorylation in kinase assay with 32P-ATP (SDS-PAGE, PhosphorImager): His6-Xcds1, but not a catalytically inactive mutant (His6-Xcds1-N324A), phosphorylated a 62-amino acid region of Xenopus Cdc25 fused to glutathione S-transferase (GST-Cdc25[254-316]-WT)

B2: Hyperphosphorylated Xcds1 protein immunoprecipitated from egg extracts containing poly(dT)40 (protein)
chain: B1 chain
[1]
  kinase activity of the immunoprecipitate, increase over background: 5 fold and 6 fold

B3: Xenopus laevis protein kinase Cds1 (Xcds1), endogenous protein in Xenopus egg extracts (protein)
chain: B1 chain
[1]
  kinase activity of the immunoprecipitate: endogenous Xcds1 immunoprecipitated from egg extracts phosphorylated this substrate well

B4: His6-Xcds1-N324A (catalytically inactive mutant) (protein)
chain: B1 chain with N324A
[1]
  phosphorylation in kinase assay with 32P-ATP (SDS-PAGE, PhosphorImager): but not a catalytically inactive mutant (His6-Xcds1-N324A)
